{"source": "FireProtDB (doi:10.1021/bi100877y)", "parents": {"B1": {"name": "Outer membrane porin C, P06996 (parent)", "chain": "MKVKVLSLLVPALLVAGAANAAEVYNKDGNKLDLYGKVDGLHYFSDNKDVDGDQTYMRLGFKGETQVTDQLTGYGQWEYQIQGNSAENENNSWTRVAFAGLKFQDVGSFDYGRNYGVVYDVTSWTDVLPEFGGDTYGSDNFMQQRGNGFATYRNTDFFGLVDGLNFAVQYQGKNGNPSGEGFTSGVTNNGRDALRQNGDGVGGSITYDYEGFGIGGAISSSKRTDAQNTAAYIGNGDRAETYTGGLKYDANNIYLAAQYTQTYNATRVGSLGWANKAQNFEAVAQYQFDFGLRPSLAYLQSKGKNLGRGYDDEDILKYVDVGATYYFNKNMSTYVDYKINLLDDNQFTRDAGINTDNIVALGLVYQF"}}, "variants_of": "B1", "conditions": "Escherichia coli (strain K12), pH 7, Thermal, phosphate 50 mM, structure 2J1N, whole UniProt chain shown", "note": "“And” between values parts separate entries of the source, which are not always exact repeats. Equal entries are not always repeated."}
{"variant": "MKVKVLSLLVPALLVAGAANAAEVYNKDGNKLDLYGKVDGLHYFSDNKDVDGDQTYMHLGFKGETQVTDQLTGYGQWEYQIQGNSAENENNSWTRVAFAGLKFQDVGSFDYGRNYGVVYDVTSWTDVLPEFGGDTYGSDNFMQQRGNGFATYRNTDFFGLVDGLNFAVQYQGKNGNPSGEGFTSGVTNNGRDALRQNGDGVGGSITYDYEGFGIGGAISSSKRTDAQNTAAYIGNGDRAETYTGGLKYDANNIYLAAQYTQTYNATRVGSLGWANKAQNFEAVAQYQFDFGLRPSLAYLQSKGKNLGRGYDDEDILKYVDVGATYYFNKNMSTYVDYKINLLDDNQFTRDAGINTDNIVALGLVYQF", "note": "[R58H]", "values": [{"measurement": "change of melting temperature, mutant - wild type (higher = more stable)", "setting": "CD", "value": "-1.5 °C and -1.1 °C and -2 °C"}, {"measurement": "Tm", "setting": "DSC", "value": 87.3, "unit": "°C"}, {"measurement": "change of melting temperature, mutant - wild type (higher = more stable)", "setting": "DSC", "value": 0.31, "unit": "°C"}, {"measurement": "unfolding enthalpy (calorimetric)", "setting": "DSC", "value": 359, "unit": "kcal/mol"}]}
{"variant": "MKVKVLSLLVPALLVAGAANAAEVYNKDGNKLDLYGKVDGLHYFSDNKDVDGDQTYMRLGFKGETQVTDQLTGYGQWEYQIQGNSAENENNSWTAVAFAGLKFQDVGSFDYGRNYGVVYDVTSWTDVLPEFGGDTYGSDNFMQQRGNGFATYRNTDFFGLVDGLNFAVQYQGKNGNPSGEGFTSGVTNNGRDALRQNGDGVGGSITYDYEGFGIGGAISSSKRTDAQNTAAYIGNGDRAETYTGGLKYDANNIYLAAQYTQTYNATRVGSLGWANKAQNFEAVAQYQFDFGLRPSLAYLQSKGKNLGRGYDDEDILKYVDVGATYYFNKNMSTYVDYKINLLDDNQFTRDAGINTDNIVALGLVYQF", "note": "[R95A]", "values": [{"measurement": "Tm", "setting": "DSC", "value": 81.3, "unit": "°C"}, {"measurement": "change of melting temperature, mutant - wild type (higher = more stable)", "setting": "DSC", "value": -5.66, "unit": "°C"}, {"measurement": "unfolding enthalpy (calorimetric)", "setting": "DSC", "value": 258, "unit": "kcal/mol"}]}
{"variant": "MKVKVLSLLVPALLVAGAANAAEVYNKDGNKLDLYGKVDGLHYFSDNKDVDGDQTYMRLGFKGETQVTDQLTGYGQWEYQIQGNSAENENNSWTSVAFAGLKFQDVGSFDYGRNYGVVYDVTSWTDVLPEFGGDTYGSDNFMQQRGNGFATYRNTDFFGLVDGLNFAVQYQGKNGNPSGEGFTSGVTNNGRDALRQNGDGVGGSITYDYEGFGIGGAISSSKRTDAQNTAAYIGNGDRAETYTGGLKYDANNIYLAAQYTQTYNATRVGSLGWANKAQNFEAVAQYQFDFGLRPSLAYLQSKGKNLGRGYDDEDILKYVDVGATYYFNKNMSTYVDYKINLLDDNQFTRDAGINTDNIVALGLVYQF", "note": "[R95S]", "values": [{"measurement": "change of melting temperature, mutant - wild type (higher = more stable)", "setting": "CD", "value": "-1.8 °C and -6.8 °C"}, {"measurement": "Tm", "setting": "DSC", "value": 81.7, "unit": "°C"}, {"measurement": "change of melting temperature, mutant - wild type (higher = more stable)", "setting": "DSC", "value": -5.26, "unit": "°C"}, {"measurement": "unfolding enthalpy (calorimetric)", "setting": "DSC", "value": 299, "unit": "kcal/mol"}]}
{"variant": "MKVKVLSLLVPALLVAGAANAAEVYNKDGNKLDLYGKVDGLHYFSDNKDVDGDQTYMRLGFKGETQVTDQLTGYGQWEYQIQGNSAENENNSWTCVAFAGLKFQDVGSFDYGRNYGVVYDVTSWTDVLPEFGGDTYGSDNFMQQRGNGFATYRNTDFFGLVDGLNFAVQYQGKNGNPSGEGFTSGVTNNGRDALRQNGDGVGGSITYDYEGFGIGGAISSSKRTDAQNTAAYIGNGDRAETYTGGLKYDANNIYLAAQYTQTYNATRVGSLGWANKAQNFEAVAQYQFDFGLRPSLAYLQSKGKNLGRGYDDEDILKYVDVGATYYFNKNMSTYVDYKINLLDDNQFTRDAGINTDNIVALGLVYQF", "note": "[R95C]", "values": [{"measurement": "Tm", "setting": "CD", "value": 68.4, "unit": "°C"}, {"measurement": "change of melting temperature, mutant - wild type (higher = more stable)", "setting": "CD", "value": -1.5, "unit": "°C"}, {"measurement": "Tm", "setting": "DSC", "value": 84.6, "unit": "°C"}, {"measurement": "change of melting temperature, mutant - wild type (higher = more stable)", "setting": "DSC", "value": -2.35, "unit": "°C"}, {"measurement": "unfolding enthalpy (calorimetric)", "setting": "DSC", "value": 297, "unit": "kcal/mol"}]}
{"variant": "MKVKVLSLLVPALLVAGAANAAEVYNKDGNKLDLYGKVDGLHYFSDNKDVDGDQTYMRLGFKGETQVTDQLTGYGQWEYQIQGNSAENENNSWTGVAFAGLKFQDVGSFDYGRNYGVVYDVTSWTDVLPEFGGDTYGSDNFMQQRGNGFATYRNTDFFGLVDGLNFAVQYQGKNGNPSGEGFTSGVTNNGRDALRQNGDGVGGSITYDYEGFGIGGAISSSKRTDAQNTAAYIGNGDRAETYTGGLKYDANNIYLAAQYTQTYNATRVGSLGWANKAQNFEAVAQYQFDFGLRPSLAYLQSKGKNLGRGYDDEDILKYVDVGATYYFNKNMSTYVDYKINLLDDNQFTRDAGINTDNIVALGLVYQF", "note": "[R95G]", "values": [{"measurement": "Tm", "setting": "CD", "value": 68.1, "unit": "°C"}, {"measurement": "change of melting temperature, mutant - wild type (higher = more stable)", "setting": "CD", "value": -1.8, "unit": "°C"}, {"measurement": "Tm", "setting": "DSC", "value": 80.8, "unit": "°C"}, {"measurement": "change of melting temperature, mutant - wild type (higher = more stable)", "setting": "DSC", "value": -6.19, "unit": "°C"}, {"measurement": "unfolding enthalpy (calorimetric)", "setting": "DSC", "value": 326, "unit": "kcal/mol"}]}
{"variant": "MKVKVLSLLVPALLVAGAANAAEVYNKDGNKLDLYGKVDGLHYFSDNKDVDGDQTYMRLGFKGETQVTDQLTGYGQWEYQIQGNSAENENNSWTAVAFAGLKFQDVGSFDYGRNYGVVYDVTSWTGVLPEFGGDTYGSDNFMQQRGNGFATYRNTDFFGLVDGLNFAVQYQGKNGNPSGEGFTSGVTNNGRDALRQNGDGVGGSITYDYEGFGIGGAISSSKRTDAQNTAAYIGNGDRAETYTGGLKYDANNIYLAAQYTQTYNATRVGSLGWANKAQNFEAVAQYQFDFGLRPSLAYLQSKGKNLGRGYDDEDILKYVDVGATYYFNKNMSTYVDYKINLLDDNQFTRDAGINTDNIVALGLVYQF", "note": "[R95A D126G]", "values": [{"measurement": "Tm", "setting": "DSC", "value": 73.9, "unit": "°C"}, {"measurement": "change of melting temperature, mutant - wild type (higher = more stable)", "setting": "DSC", "value": -13, "unit": "°C"}, {"measurement": "unfolding enthalpy (calorimetric)", "setting": "DSC", "value": 192, "unit": "kcal/mol"}]}
{"variant": "MKVKVLSLLVPALLVAGAANAAEVYNKDGNKLDLYGKVDGLHYFSDNKDVDGDQTYMRLGFKGETQVTDQLTGYGQWEYQIQGNSAENENNSWTRVAFAGLKFQDVGSFDYGRNYGVVYDVTSWTGVLPEFGGDTYGSDNFMQQRGNGFATYRNTDFFGLVDGLNFAVQYQGKNGNPSGEGFTSGVTNNGRDALRQNGDGVGGSITYDYEGFGIGGAISSSKRTDAQNTAAYIGNGDRAETYTGGLKYDANNIYLAAQYTQTYNATRVGSLGWANKAQNFEAVAQYQFDFGLRPSLAYLQSKGKNLGRGYDDEDILKYVDVGATYYFNKNMSTYVDYKINLLDDNQFTRDAGINTDNIVALGLVYQF", "note": "[D126G]", "values": [{"measurement": "Tm", "setting": "DSC", "value": 81.5, "unit": "°C"}, {"measurement": "change of melting temperature, mutant - wild type (higher = more stable)", "setting": "DSC", "value": -5.44, "unit": "°C"}, {"measurement": "unfolding enthalpy (calorimetric)", "setting": "DSC", "value": 304, "unit": "kcal/mol"}]}
